Results on three molecules are retold here after patent US20150291692A1 (INNATE PHARMA, published 2015).

Experiment [1] addresses T1, KIR3DL2 mutant MD0/HLA1 (F9S, S11A) (human, UniProt P43630 22-455).
T1 construct: Expressed on transfected HEK-293T cells; also called Number 31 (D0-HLA1)
Nature of the experiment: flow cytometry on HEK-293T cells transfected with the mutant. (In general: A flow cytometer gives signals particle by particle.)

For experiment [2], the target named is T2, KIR3DL2 mutant 2 (I60N, G62S) (human, UniProt P43630 22-455).
T2 construct: The running text prints 160N for I60N; Expressed on transfected HEK-293T cells; also called Number 2
The experiment is described as above.

Experiment [3] concerns the target T3, KIR3DL2 mutant 2A2 (Q56S, E57A) (human, UniProt P43630 22-455).
T3 construct: Expressed on transfected HEK-293T cells; also called Number 34 (1 + 2 A2)
The description is as above.

The target in experiment [4] is T4, KIR3DL2 mutant 1 (R13W, A25T, Q27R) (human, UniProt P43630 22-455).
T4 construct: Expressed on transfected HEK-293T cells; also called Number 1
The description is as above.

The target of experiment [5] is T5, wild-type human KIR3DL2 (allele *002) expressed on transfected HEK-293T cells (human, UniProt P43630 22-455).
T5 construct: also called HEK-293T/KIR3DL2; WTaKIR3DL2
Nature of the experiment: flow cytometry on transfected HEK-293T cells.

Experiment [6] deals with T6, KIR3DL2 mutant M11A1 (V178A;H180S) (human, UniProt P43630 22-455).
T6 construct: Expressed on transfected HEK-293T cells; also called Number 24 (11A1); mutant 11A1
Kind of experiment: flow cytometry on HEK-293T cells transfected with the mutant; - means substantially complete loss of binding.

For experiment [7], the target named is T7, KIR3DL2 mutant M5 + 11 (P66T;P179T;S181T) (human, UniProt P43630 22-455).
T7 construct: Expressed on transfected HEK-293T cells; also called Number 22 (5 + 11)
The description is as above.

Experiment [8] concerns the target T8, KIR3DL2 mutant M11 (P179T;S181T) (human, UniProt P43630 22-455).
T8 construct: Expressed on transfected HEK-293T cells; also called Number 11; mutant 11
The description is as above.

Experiment [9] deals with T9, KIR3DL2 mutant M8 + 11 (V127I;P179T;S181T) (human, UniProt P43630 22-455).
T9 construct: Expressed on transfected HEK-293T cells; also called Number 23 (8 + 11)
The experiment is described as above.

Experiment [10] deals with T10, KIR3DL2 mutant M11A6 (I150A;M128A) (human, UniProt P43630 22-455).
T10 construct: Expressed on transfected HEK-293T cells; also called Number 29 (11A6)
Nature of the experiment: flow cytometry on HEK-293T cells transfected with the mutant; + no significant loss of binding, ± decrease.

The target in experiment [11] is T11, KIR3DL2 mutant M11A4 (E130S;H131S;R145S) (human, UniProt P43630 22-455).
T11 construct: Expressed on transfected HEK-293T cells; also called Number 27 (11A4)
Described as above.

For experiment [12], the target named is T12, KIR3DL2 mutant M11A3 (N99S;H100S;Q184A) (human, UniProt P43630 22-455).
T12 construct: Expressed on transfected HEK-293T cells; also called Number 26 (11A3)
The experiment is described as above.

In experiment [13] the target is T13, KIR3DL2 mutant M11A5 (V147A;Q149S) (human, UniProt P43630 22-455).
T13 construct: Expressed on transfected HEK-293T cells; also called Number 28 (11A5)
The description is as above.

Experiment [14] concerns the target T14, KIR3DL2 mutant M10 (R136K;E141K) (human, UniProt P43630 22-455).
T14 construct: Expressed on transfected HEK-293T cells; also called Number 10
Described as above.

Experiment [15] deals with T15, KIR3DL2 mutant M8 (V127I) (human, UniProt P43630 22-455).
T15 construct: Expressed on transfected HEK-293T cells; also called Number 8; Mutant 8
Described as above.

In experiment [16] the target is T16, KIR3DL2 mutant M7 (L113V;T118R) (human, UniProt P43630 22-455).
T16 construct: Expressed on transfected HEK-293T cells; also called Number 7
The experiment is described as above.

For experiment [17], the target named is T17, KIR3DL2 mutant M9 (L164M;P166L;V167A) (human, UniProt P43630 22-455).
T17 construct: Expressed on transfected HEK-293T cells; also called Number 9
Described as above.

For experiment [18], the target named is T18, KIR3DL2 on fresh Sezary Syndrome cells of patients (human, UniProt P43630 22-455).
T18 construct: whole, on cells; also called SS cells
Kind of experiment: flow cytometry of whole blood of a Sezary Syndrome patient, antibody + GaM-PE against CD4; upper gate (CD4+ KIR3DL2+ leukemic Sezary cells).

The target of experiment [19] is T11, KIR3DL2 mutant M11A4 (E130S;H131S;R145S). Nature of the experiment: flow cytometry on HEK-293T cells transfected with the mutant; - means substantially complete loss of binding.
Experiment [20] deals with T19, KIR3DL1 expressed on cells (human, UniProt P43629 22-444).
T19 construct: also called HEK-293T/KIR3DL1
Nature of the experiment: flow cytometry on HEK KIR3DL1 cells (row HEK-KIR3DL1).

Experiment [21] addresses T20, NK cells, including normal KIR3DL2+ NK cells (Homo sapiens, UniProt P43630).
T20 construct: full-length receptor on the cell surface; also called gate NK GaM PE+; KIR3DL2 on CD4-negative NK cells in the blood of the Sezary Syndrome patient
Nature of the experiment: flow cytometry of whole blood of a Sezary Syndrome patient, antibody + GaM-PE against CD4; lower gate (CD4-negative NK cells).

Experiment [22] concerns the target T21, KIR3DL2 at the surface of HUT78 Sezary Syndrome cell line (human, UniProt P43630 22-455).
T21 construct: whole, on cells; Two alleles are expressed
Kind of experiment: flow cytometry competition on HUT78 cells; naked antibody titrated against 15C11-PE (5 µg/ml).

Experiment [23] concerns the target T22, KIR3DL2 recombinant protein (R&D Systems) (human, UniProt P43630 28-340).
T22 construct: Bought protein; also called rec KIR3DL2; recombinant KIR3DL2-Fc fusion protein; not shown: Fc part of the bought fusion protein; not described
Kind of experiment: SPR (Biacore T100), antibody injected over immobilised recombinant KIR3DL2, bivalent affinity, pH 7.2. On the technique in general: SPR reads the build-up and loss of mass on a sensor chip optically.

T19 sequence (P43629 22-444 limits assumed): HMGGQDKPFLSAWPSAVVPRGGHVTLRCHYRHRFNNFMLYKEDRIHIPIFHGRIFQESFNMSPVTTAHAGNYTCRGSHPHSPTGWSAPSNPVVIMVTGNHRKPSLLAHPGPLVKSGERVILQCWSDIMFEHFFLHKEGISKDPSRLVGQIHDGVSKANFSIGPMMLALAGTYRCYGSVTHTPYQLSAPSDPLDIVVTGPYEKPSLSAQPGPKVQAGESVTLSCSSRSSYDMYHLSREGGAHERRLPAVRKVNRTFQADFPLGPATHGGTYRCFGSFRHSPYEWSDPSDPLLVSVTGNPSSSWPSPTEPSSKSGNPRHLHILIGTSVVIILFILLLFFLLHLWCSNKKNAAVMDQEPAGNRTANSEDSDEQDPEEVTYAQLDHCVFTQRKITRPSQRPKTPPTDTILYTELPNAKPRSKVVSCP

B1: antibody 13H1 (antibody, V domains shown)
VH: EVQLQQSGPELVKPGASMKISCKASHYSFIGYTMNWVKQRHGKNLEWIGLINPYNGDTTYNQKFKGKASLTVDKSSSTAYMEILSLTSEDSAVYYCARENWGYPYAMDYWGQGTSVTVS
VL: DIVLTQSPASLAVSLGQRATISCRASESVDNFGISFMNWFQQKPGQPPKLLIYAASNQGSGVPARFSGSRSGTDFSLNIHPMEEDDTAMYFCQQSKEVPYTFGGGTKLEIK
For the molecule B1, the binding result is recorded as “binds” in [1], “no binding” in experiment [2], “binds” in experiment [3] and “no binding” in experiment [4].

B2: antibody 12B11 (antibody, V domains shown)
VH: QLVQSGPELKNPGETVKISCKASGYTFTNYGMNWVKQAPGKGLKWMGWINTYTGEPTYADDFKGRFAFSLETSASTAYLQINNLKNEDTATYFCAHGPWLAYWGQGTLVTVS
VL: DIKMTQSPSSMYASLGERVTITCKASQDINVYLSWFQQKPGKSPKTLIYRAIRLVDGVPSRFSGSGSGQDYSLTISSLDYEDMGIYYCLQYDELPYTFGGGTKLEIE
Consider B2, for which the binding result in experiment [5] is given as “binds”; in experiment [6] it was “no binding”; in [7], “no binding”; in experiment [8], “no binding”; in [9] it was “no binding”; in experiment [10] it was “binds”. Besides, the binding result in [11], in experiment [12], in experiment [13], in [14], in experiment [15] and in experiment [16] was “binds” each time. Moreover, the binding result in experiment [17] is “binds”.

B3: antibody 19H12 (antibody, mouse IgG2b, V domains shown)
VH: QIQLVQSGPELKKPGETVKISCKASGYTFTNFGMNWVKQAPGKGLKWMGWINTYTGEPTYADDFKGRFAFSLETSASTAYLQINNLKNEDMATYFCARNGNFGYYFDYWGQGTTLTVSS
VL: DVLMTQTPLSLPVSLGDQASFSCRSSQNIVHSNGNTYLEWYLQKPGQSPSLLIYKVSNRFSGVPDRFSGSGSGTDFTLKITRVEAEDLGVYYCFQGSHVPFTFGSGTKLEIK
notes: also called mo19H12
With B3, in [18], the “% of cells in gate CD4 GaM PE+” value came to 7.5%. The binding result is “no binding” in experiment [19]; “no binding” in experiment [8]; “no binding” in [9]; “no binding” in [20]; “binds” in experiment [10]; “binds” in experiment [12]. Besides, the binding result in experiment [13], in [14], in [16] and in experiment [17] was “binds” throughout. Further, in [21], the “% of cells in gate NK GaM PE+” value stood at 14.9%. The “IC50 (read off the curve)” value in [22] is approximately 0.4 µg/mL. Moreover, in [23], the Kd was 490 pM.
